Source: patent US8871276B2, “Beta-casein assemblies for mucosal delivery of therapeutic bioactive agents” (Technion Research and Development Foundation Ltd., priority 2008, dated 2014)

Tests used:
Format in all cases: physicochemical
Cryo-TEM of micelles = assay: Cryo-TEM of micelles
Experimental: Specimens were prepared either in an automated vitrification device (Vitrobot, FEI, The Netherlands) or in the controlled environment vitrification system (CEVS) (Bellare et al. Electron Microsc. Technique, 1988, 10; 87-111) at 24° C. and 100% relative humidity to avoid loss of volatiles. Using the latter, the solutions were incubated in the CEVS at the desired temperature for 1 h. Then, a 7 μL drop of each solution was placed on a TEM copper grid covered with a perforated carbon film (Pelco International) and blotted with filter paper to form a thin liquid film of the sample (100-200 nm thick). The thinned sample was plunged into liquid ethane at its freezing temperature (−183° C.) to form a vitrified specimen and then transferred to liquid nitrogen ([…]) for storage. Some of the vitrified specimens were examined in a Philips CM120 transmission electron microscope. (Philips, The Netherlands) operating at an accelerating voltage of 120 kV. An Oxford CT3500 (Oxford Instruments) cryo-specimen holder that maintained the specimens below −175° C. during sample transfer and observation Other specimens were examined in a Tecnai 12 G2 TEM (FEI) using a Gatan 626 cryo-holder. Specimens were studied in a low-dose imaging mode to minimize beam exposure and electron beam radiation damage.
Images were recorded digitally on a cooled Gatan MultiScan 791 CCD camera using DigitalMicrograph 3.1 software (Gatan) in the low-dose imaging mode to minimize beam exposure and electron-beam radiation damage. Alternatively, images were recorded in the Tecnai on a high-resolution 2 k×2 k Ultrascan 1000 cooled CCD (Gatan, UK), using the Digital Micrograph 3.6 software (Gatan, UK).
The structural characteristics of the micelles in the two pH environments were studied by cryo-TEM and SAXS (Small Angle X-ray Scattering). Cryo-TEM was used to determine the shape of the micelles and to estimate their dimensions between 4 and 40° C. This information was further used to accurately calculate the micelles' dimensions from the SAXS data, and to study how the size and shape are affected by temperature. […]

[1] = Isothermal titration calorimetry (ITC) of β-casein micellization
Experimental: […] The reaction cell (V=1.43 mL) was filled with degassed solvent (lactic acid at pH 2.6, or phosphate buffer at pH 7.0). The injector-stirrer syringe (289 μL) was loaded with a β-casein micellar solution (20 mg/mL). The micellar solution was injected into the reaction cell in 28 steps of 10 μL aliquots each, and the heat flow was measured. During the titration, the stirring speed was 310 rpm. The duration of each injection was 20 s, and the equilibration time between consecutive injections was 3 min. Such an interval was sufficient to equilibrate the reaction cell after every injection. Each experiment was performed at least three times. Calorimetric data analysis was carried out using Origin 5.0 software (MicroCal).
β-casein micellar solution was titrated into lactic acid buffer (pH 2.6) placed in the ITC cell, and the heat flow was measured as a function of time (FIG. 6A). Three factors contribute to the exothermic enthalpy changes observed at the initial injections: micelle dilution, demicellization, and dilution of individual β-casein molecules. The enthalpy changes decrease in magnitude as more protein is added and the concentration in the ITC cell increases. Eventually, the concentration in the cell exceeds the CMC and only micelle dilution contributes to the heat flow. In FIG. 6B the heat of the reaction, obtained by integrating the peaks of the individual injections given in FIG. 6A, is plotted against the β-casein concentration in the cell. A slow increase in the reaction enthalpy was observed, resulting in micellixation relative cooperativity (MR) of 0.14 mM (FIG. 6b), which is more than twice than the value found at pH 7.0 and IS of 0.1. FIG. 6B also presents the heat of demicellization, ΔHdemic, which equals the enthalpy difference between the two asymptotes of the sigmoid fit of the experimental data (obtained by using the Origin software). It is shown that at 24° C. ΔHdemic is ≦17.9 kJ/mol, relatively small compared with the −40.53 kJ/mol found at pH 7.0 and IS of 0.1. […] This value is approximately twice the CMC found at pH 7 and ionic strength 0.1. The small ΔHdemic, the high CMC, and the large MR indicate that the driving forces for micellization under acidic conditions are reduced compared with those at physiological pH and high IS.

[2] = Analytical ultracentrifugation (sedimentation equilibrium)
Experimental: Sedimentation equilibrium experiments were performed at 24° C. using a Beckman Optima XL-A (Palo Alto, Calif.) analytical centrifuge at 6,000, 10,000, and 12,000 rpm for the low-pH solutions and at 4,000, 6,000, and 8,000 rpm for the pH 7.0 solutions. Data were collected at 280 nm. The β-casein solutions were studied at concentrations ranging from 0.2 to 10.0 mg/mL at pH 2.6 and from 0.2 to 2 mg/mL at pH 7.0 and an ionic strength of 0.1. […] The average apparent molecular weight of the micelles at the various protein concentrations was calculated following methods well known in the art (The partial specific volume νj of the solute was taken to be […], and a solution density F of 1.0044 g/cm^3 was measured). At β-casein concentrations of 2 mg/mL and above under low pH conditions, the plot of the natural logarithm of the measured absorbance versus the square of the radius from the axis of rotation was not linear. To estimate Nagg, the limiting slope toward the outer edge of the sample cell was used to provide d ln(c)/dr^2. The molecular weight calculated using this slope was divided by the monomer molecular weight calculated from the β-casein amino acid sequence (24,000).
To determine the aggregation number of the micelles at pH 2.6, analytical ultracentrifugation experiments were conducted at various protein concentrations and at […] and IS of 0.002. Sample data are plotted in FIG. 7, showing data with the protein concentration at 5 mg/ml, and ionic strength (IS) of 0.002. […] The aggregation numbers calculated from the slope of this line confirmed that the protein is monomeric at these concentrations. At concentrations higher than the CMC, two regions could be defined, indicating the presence of two protein populations: monomers at relatively short radii (i.e., in FIG. 7 at r<6.5 or r2<43) and assemblies at large radii. The micelles at pH 2.6 are characterized by a small aggregation number of 3 around the CMC and 6 at higher concentrations. In contrast, Nagg of 20 was measured at pH 7.0 and ionic strength 0.1. […]

[3] = lactic acid solution pH 2.6, 4-40 °C

B1: β-casein: bovine β-casein self-assembled into unloaded micelles in acidic or neutral buffer (protein, UniProt P02666 16-224, looked up)
Beta-casein: RELEELNVPGEIVESLSSSEESITRINKKIEKFQSEEQQQTEDELQDKIHPFAQTQSLVYPFPGPIPNSLPQNIPPLTQTPVVVPPFLQPEVMGVSKVKEAMAPKHKEMPFPKYPVEPFTESQSLTLTDVENLHLPLPLLQSWMHQPHQPLPPTVMFPPQSVLSLSQSKVLPVPQKAVPYPQRDMPIQAFLLYQEPVLGPVRGPFPIIV
modifications: self-assembled micelles
notes: bovine β-casein self-assembled into unloaded micelles in acidic or neutral buffer
In the case of B1, the “Maximum dimension of empty micelles (cryo-TEM)” value (Cryo-TEM of micelles; hepes buffer pH ~7) is reported as “about 22 nm”, the “Micelle surface length (cryo-TEM)” value (Cryo-TEM of micelles; [3]) is reported as 20-25 nm and the “Micelle thickness (cryo-TEM)” value (Cryo-TEM of micelles; [3]) is reported as 3-4 nm. For the same molecule, the “Micellization relative cooperativity (MR)” value ([1]; lactic acid pH 2.6, 24 °C) was 0.14 mM, the “Heat of demicellization ΔHdemic” value ([1]; pH 2.6, 24 °C) was ≤ 4.28 kcal/mol and the CMC ([1]; pH 2.6, 24 °C, by ITC) was 1.89 mg/mL. For the same molecule, the CMC ([1]; pH 2.6, 25 °C, by ITC) was 0.19 wt %, the CMC ([1]; pH 2.6, by ITC) was 0.079 mM and the “Heat of demicellization ΔHdemic” value ([1]; pH 7.0, IS 0.1) was -9.687 kcal/mol. For the same molecule, the “Aggregation number (ultracentrifugation)” value ([2]; pH 2.6, around the CMC) was 3, the “Aggregation number (ultracentrifugation)” value ([2]; pH 2.6, concentrations higher than the CMC, 24-25 °C) was 6 and the “Nagg (ultracentrifugation)” value ([2]; pH 7.0, ionic strength 0.1) was 20.
